Test results as given in US20140024050A1 (published 2014).
Bridges are numbered along the chain shown (N, C = ends). Where no end group is shown, it is not given here.

T1: Alexa-488 labeled PIVKAII Gla domain peptide (13-27), cyclized (disulfide 5-10 (inferred); also: Alexa Fluor 488 attached via TFP active ester, site not given here)
T1 construct: also called Alexa488-PIVKAII (13-27); Alexa488-PIVKAII peptide (13-27 cyc)
T1 peptide: LERECVEETCSYEEA

B1: anti-PIVKA-II monoclonal antibody 3C10 (hybridoma-derived) (antibody, V domains shown)
VH: EVQLVESGGDLVKPGGSLKLSCAASGFTFSSYGMSWVRQTPDKRLEWVATISRGGSSTYYPDSVKGRFTISRDNAKNNLYLQMSSLKSEDTAMYYCASLNYGNFFDYWGQGTTLTVSS
VL: DVVMTQTPLSLPVSLGDQASISCRSSQSLVHSNGNTYLHWYLQKPGQSPKLLIYKVSNRFSGVPDRFSGSGSGTDFTLKISRVEAEDLGVYFCSQNRHVPPTFGGGTKLEIKR
notes: Mouse monoclonal from a GANP transgenic C57BL/6 mouse immunized with PIVKA-II 13-27 peptide-KLH; For the Kd by quenching the antibody carried Black Hole Quencher (I.R. 2.3); also called mAb 3C10; clone 3C10
B2: Gla domain Protein C peptide (sequence 14) (peptide)
peptide: LERECIEEICDFEEA
notes: also called PIVKAII Gla domain (13-27) analog; PIVKAII peptide analog
B3: Gla domain Protein Z peptide (sequence 16) (peptide)
peptide: LEKECYEEICVYEEA
notes: as for B2
B4: PIVKAII (13-27) peptide, unlabeled (peptide)
peptide: LERECVEETCSYEEA
notes: also called PIVKA-II peptide (13-27)
B5: Gla domain Factor X peptide (sequence 12) (peptide)
peptide: LERECMEETCSYEEA
notes: as for B2
B6: Gla domain Factor IX peptide (sequence 11) (peptide)
peptide: LERECMEEKCSFEEA
notes: as for B2
B7: Gla domain Factor VII peptide (sequence 13) (peptide)
peptide: LERECKEEQCSFEEA
notes: as for B2
B8: Gla domain Protein S peptide (sequence 15) (peptide)
peptide: LERECIEELCNKEEA
notes: as for B2

Key:
[1] = target: T1, Alexa-488 labeled PIVKAII Gla domain …; experiment: fluorescence quenching (FRET) titration in solution, BHQ-labeled mAb, 0.05 nM Alexa488 peptide
Description: The binding curve was fit with a simple fitting model.
All binding measurements were performed in 10 mM HEPES buffer, pH 7.4, containing 0.15M NaCl, 3 mM EDTA, and 0.005% surfactant P20.

[2] = target: T2, PIVKA-II antigen (heat-decarboxylated prothrombin) (UniProt P00734 44-622, Gla residues of the Gla domain decarboxylated to glutamic acid by heating dried prothrombin powder at 110 C for 8 hours); experiment: FCS displacement of Alexa488-PIVKAII (13-27) from mAb 3C10 by PIVKA-II preparations
T2 construct: Residues 13-27 are counted on the Gla domain
Description: Various amounts of PIVKAII from different preparations were added to the antigen-antibody complex. After overnight incubation, FCS measurements were performed on each sample.

[3] = target: B1; experiment: FCS displacement: 2 nM Alexa488-PIVKAII (13-27) premixed with 10 nM mAb 3C10, analog added, overnight
Description: (§1) Then, various PIVKAII Gla domain (13-27) analogs were added to the sample. PIVKAII (13-27) was added as a positive control, and the original sample was used as a negative control. FCS measurements were performed on each sample after overnight incubation.

[4] = target: B1; experiment: FCS displacement of Alexa488-PIVKAII (13-27) from mAb 3C10, positive control
Description: as §1

binding result [3]	Binder	further results
	B1	Kd [1]: 0.15 nM; binding result [2]: binds
no binding	B2	
no binding	B3	
	B4	binding result [4]: binds
no binding	B5	
no binding	B6	
no binding	B7	
no binding	B8	
